Results on 11 molecules are retold here after patent publication US20220098591, “STEM-LOOP COMPOSITIONS AND METHODS FOR INHIBITING VASCULAR ENDOTHELIAL GROWTN FACTOR” (DRIVE THERAPEUTICS LLC, published 2022).

Series [1] addresses T1, VEGF-A121 (Homo sapiens, UniProt P15692 SEQ:1-121). Kind of series: competition; TR-FRET; stem S1 mispaired. The following applies: tags: glycan-biotinylated for SPR/FRET/AlphaLISA; Acro BioSystems, Biolegend; chain copies: 2 (stated). Here is the method: (§1) Briefly, for competition TR-FRET, 2-fold dilutions of thermally equilibrated aptamers were made in TR-FRET Buffer (50 mM MOPS, pH 7.4, 125 mM NaCl, 5 mM KCl, 50 μM CHAPS, 0.1 mg/mL BSA, 1 mM CaCl₂, and 1 mM MgCl₂). 5 μL of aptamer or control solution was added to a 15 μL mix of glycan biotinylated […] (5 nM final), ALEXA FLUOR® 647-labeled Aptamer (30 nM final), and Streptavidin-Eu (Perkin Elmer; 2.5 nM final) in a black wall low volume 384 well plate (Greiner). For control, 5 μl of 1000-fold excess of unlabeled parent aptamer or 5 μl TR-FRET buffer alone was added to the mix of ALEXA FLUOR® 647-labeled aptamer, biotin-VEGF-A, and Streptavidin-Eu. The plate was covered with a plate seal and subsequently incubated in the dark for 1 hour at room temperature. The plate was read on a Biotek CYTATION™ 5 plate reader. Samples were excited at 330 nm and fluorescent values were collected at 665 nm. Data analysis was performed by subtracting the background value and plotting as percent inhibition, normalized to baseline in the absence of competitor. The values were fit by [Inhibitor] vs. response-Variable slope (four parameters) using GraphPad Prism Version 7.0 and then normalized to aptamer control to obtain an IC₅₀ relative to parent aptamer. Data is presented as log values of relative IC₅₀. […]
In general terms: In TR-FRET formats the signal depends on donor and acceptor labels being close together.

For series [2], the target named is T1, VEGF-A121. Kind of series: competition; TR-FRET; stem S3 mispaired. The following applies: tags: glycan-biotinylated for SPR/FRET/AlphaLISA; Acro BioSystems, Biolegend; chain copies: 2 (stated). As for the experimental part:
as §1

Series [3] concerns the target T2, VEGF-A165 (Homo sapiens).
T2 chain: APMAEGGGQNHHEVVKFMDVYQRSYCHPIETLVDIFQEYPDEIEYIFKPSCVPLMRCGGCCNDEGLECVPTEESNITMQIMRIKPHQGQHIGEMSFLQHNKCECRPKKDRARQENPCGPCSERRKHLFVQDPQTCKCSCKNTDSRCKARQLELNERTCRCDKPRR
Kind of series: cell_activity; KDR phosphorylation; >50% at 100 nM with VEGF-A121. The following applies: tags: glycan-biotinylated for SPR/FRET/AlphaLISA; Acro BioSystems, R&D Systems; chain copies: 2 (inferred). Here is the method: (§2) Briefly, HEK293 cells engineered to stably overexpress KDR were plated overnight in collagen coated 96 well plates at 50 k cells/well. Aptamers in SB1+ (40 mM HEPES, pH 7.5, 125 mM NaCl, 5 mM KCl, 1 mM MgCl₂) were heated to 90° C. for 3 minutes and allowed to cool to room temperature for a minimum of 10 minutes. […] 15 μL of VEGF-A was added to 15 μL titrated aptamer in a polypropylene plate and diluted to 300 μL with TS buffer (10 mM Tris pH 7.5; 100 mM NaCl; 5.7 mM KCl; 1 mM MgCl₂; 1 mM CaCl₂). The aptamer/VEGF-A mixture was incubated at 37° C. for 30 minutes, after which 100 μL was added to the cells for 5 minutes at 37° C. in 5% CO₂. Treatments were aspirated from cells, and cells were lysed with 100 μL cold lysis buffer [20 mM Tris-HCl, pH 7.5, 150 mM NaCl, 1 mM EDTA, 1% Triton X-100, 0.5 mM sodium orthovanadate (freshly prepared), 1 mM PMSF (freshly prepared), lx protease inhibitor cocktail (freshly prepared)] on ice for 10 minutes. Plates were centrifuged at 4000×g for 10 minutes before transferring the cell lysis to the AlphaLISA® assay plate.
(§3) To perform the AlphaLISA® assay, 10 μL of cell lysis was transferred to a white low volume 384 well Optiplate (Perkin Elmer). […] 10 μL of this reagent mixture was added to the assay plate that contained 10 μL of cell lysate. The assay plate was sealed and incubated in the dark for approximately 2 hours, then was read on a Biotek CYTATION™ 5 plate reader using the Alpha 384 well optical cube. Percent inhibition was calculated by subtracting TS buffer background from each value and normalizing to VEGF-A only controls. The values were fit by using a four-parameter non-linear fit in GraphPad Prism Version 7.0.
Background: In Alpha technology, singlet oxygen from a donor bead excites a nearby acceptor bead.

Series [4] deals with T1, VEGF-A121. Kind of series: cell_activity; KDR phosphorylation in HEK293-KDR. The following applies: tags: glycan biotinylated in TR-FRET; Biolegend in the cell assay; chain copies: 2. Here is the method:
as §2, §3

For series [5], the target named is T1, VEGF-A121. Kind of series: competition; TR-FRET; stem S2 mispaired. The following applies: tags: glycan-biotinylated for SPR/FRET/AlphaLISA; Acro BioSystems, Biolegend; chain copies: 2 (stated). Here is the method: as §1
Series [6] deals with T1, VEGF-A121. The series is described as follows: competition; TR-FRET. The following applies: tags: glycan-biotinylated for SPR/FRET/AlphaLISA; Acro BioSystems, Biolegend; chain copies: 2 (stated). Here is the method:
Briefly, for competition TR-FRET, 2-fold dilutions of thermally equilibrated aptamers were made in TR-FRET Buffer (50 mM MOPS, pH 7.4, 125 mM NaCl, 5 mM KCl, 50 μM CHAPS, 0.1 mg/mL BSA, 1 mM CaCl₂, and 1 mM MgCl₂). 5 μL of aptamer or control solution was added to a 15 μL mix of glycan biotinylated […] (5 nM final), ALEXA FLUOR® 647-labeled Aptamer (30 nM final), and Streptavidin-Eu (Perkin Elmer; 2.5 nM final) in a black wall low volume 384 well plate (Greiner). For control, 5 μl of 1000-fold excess of unlabeled parent aptamer or 5 μl TR-FRET buffer alone was added to the mix of ALEXA FLUOR® 647-labeled aptamer, biotin-VEGF-A, and Streptavidin-Eu. The plate was covered with a plate seal and subsequently incubated in the dark for 1 hour at room temperature. The plate was read on a Biotek CYTATION™ 5 plate reader. Samples were excited at 330 nm and fluorescent values were collected at 665 nm. Data analysis was performed by subtracting the background value and plotting as percent inhibition, normalized to baseline in the absence of competitor. The values were fit by [Inhibitor] vs. response-Variable slope (four parameters) using GraphPad Prism Version 7.0 and then normalized to aptamer control to obtain an IC₅₀ relative to parent aptamer. Data is presented as log values of relative IC₅₀.

Take AGGCCGCAUCCGCGCGGAGGGGUUUCAUUAUCCCGUUUAACCGCUU (ssRNA, all G 2'-F; A,C,U 2'-OMe; 5' C6NH2; 3' idT) [Aptamer 180]: the binding signal in series [1] was > 100 fold worse IC50 vs Aptamer 26.
Still for that read-out and setting: then AGGCCGCAUCCGCGCGGAGGGGUUUCAUUAUCCCGUUUAACCGAUU (ssRNA, all G 2'-F; A,C,U 2'-OMe; 5' C6NH2; 3' idT) [Aptamer 181], with > 100 fold worse IC50 vs Aptamer 26.
With AGGCCGCCUCCGCGCGGAGCCGUUUCAUUAUCCCGUUUGGCGGCUU (ssRNA, all G 2'-F; A,C,U 2'-OMe; 5' C6NH2; 3' idT) [Aptamer 184], the binding signal in series [2] is > 100 fold worse IC50 vs Aptamer 26.
Same read-out and setting: the figure for AGGCCGCCUCCGCGCGGAGGGGUUUCAUUAUAACGUUUGGCGGCUU (ssRNA, all G 2'-F; A,C,U 2'-OMe; 5' C6NH2; 3' idT) [Aptamer 185] is > 100 fold worse IC50 vs Aptamer 26.
Consider UAGGCCGCCUCCGCGCGGAGGGGUUUCAUUUAUCCCGUUUGGCGGCUUU (ssRNA, all G 2'-F; A,C,U 2'-OMe; 5' C6NH2; 3' idT), for which the activity in series [3] is > 50 % inhibition at 10 nM.
Take UAGGCCGCCUCCGCGCGGAGGGGUUUCAUUUAUCCCGUUUGGCGGCUUU (ssRNA, 2'-F G; 2'-OMe A,C,U; 5' C6NH2; 3' idT): the activity in series [4] is > 50 % inhibition at 100 nM.
Turning to AGGCCGCCUUUGCGCUUAGGGGUUUCAUUAUCCCGUUUGGCGGCUU (ssRNA, all G 2'-F; A,C,U 2'-OMe; 5' C6NH2; 3' idT) [Aptamer 182], the binding signal in series [5] was > 100 fold worse IC50 vs Aptamer 26.
As for AGGCCGCCUCCGCGCCCAGGGGUUUCAUUAUCCCGUUUGGCGGCUU (ssRNA, all G 2'-F; A,C,U 2'-OMe; 5' C6NH2; 3' idT) [Aptamer 183], in series [5], the binding signal is > 100 fold worse IC50 vs Aptamer 26.
Consider AGGCCGCCUCCGCGCGGAGGGGUUUCAUAUCCCGUUUGGCGGCUU (ssRNA, all G 2'-F; A,C,U 2'-OMe; Sp3 joins the two parts; 5' C6NH2; 3' idT) [Aptamer 66], for which, in series [6], the binding result was “binds”.
Regarding AGGCCGCCUCCGCGCGGAGGGGUUUCAUUUCCCGUUUGGCGGCUU (ssRNA, all G 2'-F; A,C,U 2'-OMe; Sp3 joins the two parts; 5' C6NH2; 3' idT) [Aptamer 68], in series [6], the binding signal is > 100 fold worse IC50 vs Aptamer 26.
As for AGGCCGCCUCCGCGCGGAGGGGUUUCAUAUCCCGUUUGGCGGCUU (ssRNA, all G 2'-F; A,C,U 2'-OMe; Sp3 joins the two parts; 5' C6NH2; 3' idT) [Aptamer 67], the binding result in series [6] was “binds”.
